Legend:
[1] = target: GST-fused SCRMΔC (1-404) (Arabidopsis thaliana) (UniProt Q9LSE2); experiment: BLI; as a1, samples incubated 30 min with a 1:4 molar ratio of the synthetic E-box repeat fragment; analyte 200-3.125 nM or 1000-25 nM
GST-fused SCRM (1-494) [2] = target: T1, GST-fused SCRM (1-494) (Arabidopsis thaliana, UniProt Q9LSE2 1-494); experiment: as above; settings: both partners purified
T1 construct: SCREAM (SCRM, also known as ICE1), Arabidopsis thaliana, At3G26744, residues 1-494; pGEX-4T-1 with thrombin site; GST kept because the protein was loaded on anti-GST probes for BLI; also called SCREAM; ICE1; source: E. coli BL21, purified (glutathione agarose resin); not shown: GST, N-terminal, kept
T1 sequence (looked up): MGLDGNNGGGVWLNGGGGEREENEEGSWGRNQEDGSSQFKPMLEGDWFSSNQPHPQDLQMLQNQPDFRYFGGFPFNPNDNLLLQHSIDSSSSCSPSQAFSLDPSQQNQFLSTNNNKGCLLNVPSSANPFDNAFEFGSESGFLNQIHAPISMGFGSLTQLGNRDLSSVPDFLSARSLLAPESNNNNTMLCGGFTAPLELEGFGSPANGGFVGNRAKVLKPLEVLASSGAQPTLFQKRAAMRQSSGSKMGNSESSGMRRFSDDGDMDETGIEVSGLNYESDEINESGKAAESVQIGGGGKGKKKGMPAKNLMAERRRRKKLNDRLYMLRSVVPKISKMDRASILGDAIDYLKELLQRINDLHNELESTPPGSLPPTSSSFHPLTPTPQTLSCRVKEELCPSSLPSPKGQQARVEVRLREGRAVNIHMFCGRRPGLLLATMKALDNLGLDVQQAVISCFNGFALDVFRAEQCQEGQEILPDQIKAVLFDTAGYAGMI

[3] = target: GST-fused SCRMΔC (1-404) (Arabidopsis thaliana) (UniProt Q9LSE2); experiment: BLI; as a1, samples incubated 30 min with a 1:4 molar ratio of the TMM promoter fragment containing the E-box; analyte 200-3.125 nM or 1000-25 nM
GST-fused SCRM (1-494) [4] = target: T1, GST-fused SCRM (1-494); experiment: as above; settings: both partners purified
GST-fused SCRM (1-494) [5] = target: T1, GST-fused SCRM (1-494); experiment: BLI; as a1, samples incubated 30 min with a 1:4 molar ratio of the TMM promoter fragment containing a mutant E-box (control); analyte 200-3.125 nM or 1000-25 nM; settings: both partners purified
GST-fused SCRM (1-494) [6] = target: T1, GST-fused SCRM (1-494); experiment: BLI; Octet Red96; anti-GST probes loaded with 500 nM GST-SCRM or GST-SCRMΔC; SPCH/MUTE/FAMA as analyte at 200-3.12 nM; 30 °C; 1x PBS, 0.02% Tween 20; no DNA; 1:1 model for kon, koff and KD, steady-state analysis for KD (SS); settings: both partners purified

Kd [1]: 545 nM | koff [1]: 0.0017 s⁻¹ | kon [1]: 3100 M⁻¹ s⁻¹ | Kd (GST-fused SCRM (1-494) [2]): 5.1 ± 0.3 nM | koff (GST-fused SCRM (1-494) [2]): 0.000285 s⁻¹ | kon (GST-fused SCRM (1-494) [2]): 56200 M⁻¹ s⁻¹ | Kd [3]: 565 nM | koff [3]: 0.0016 s⁻¹ | kon [3]: 2850 M⁻¹ s⁻¹ | Kd (GST-fused SCRM (1-494) [4]): 7.3 ± 0.2 nM | koff (GST-fused SCRM (1-494) [4]): 0.000286 s⁻¹ | kon (GST-fused SCRM (1-494) [4]): 39200 M⁻¹ s⁻¹ | Kd (GST-fused SCRM (1-494) [5]): 11.1 ± 0.8 nM | koff (GST-fused SCRM (1-494) [5]): 0.00023 s⁻¹ | kon (GST-fused SCRM (1-494) [5]): 20800 M⁻¹ s⁻¹ | Kd (GST-fused SCRM (1-494) [6]): 6.1 ± 0.5 nM | koff (GST-fused SCRM (1-494) [6]): 0.000147 s⁻¹ | kon (GST-fused SCRM (1-494) [6]): 24200 M⁻¹ s⁻¹
B1: MUTE (1-202) (natural protein, Arabidopsis thaliana, UniProt Q9M8K6 1-202, looked up)
chain: MSHIAVERNRRRQMNEHLKSLRSLTPCFYIKRGDQASIIGGVIEFIKELQQLVQVLESKKRRKTLNRPSFPYDHQTIEPSSLGAATTRVPFSRIENVMTTSTFKEVGACCNSPHANVEAKISGSNVVLRVVSRRIVGQLVKIISVLEKLSFQVLHLNISSMEETVLYFFVVKIGLECHLSLEELTLEVQKSFVSDEVIVSTN
notes: MUTE, Arabidopsis thaliana, residues 1-202; MUTE (1-202) was made both as a GST fusion (pGEX-4T-1, thrombin-cleavable) and with an N-terminal His tag (pET28a); also called MUTE-HIS; MUTE-histag; source: E. coli BL21, purified (Ni-NTA or glutathione resin, Superdex-200)
